Data reported in patent US7816499B2, “Antibodies that selectively bind HDAC9” (Sloan-Kettering Institute for Cancer Research, priority 2001, dated 2010).

Legend:
HDAC9a-FLAG [1] = target: T1, HDAC9a-FLAG (Homo sapiens, UniProt Q9UKV0); assay: HDAC enzymatic assay, 3H-acetic acid released from 3H-histones; assay type: biochemical; parameters: made in house; host or cells: human kidney 293T cells, transient transfection, anti-FLAG M2 agarose immunoprecipitation, elution with FLAG peptide; settings: 3H-histones substrate; SAHA 2 μM (FIG. 8); preincubated 30 minutes at 4° C.
Description: The reaction was stopped by the addition of 1M HCl/0.1 acetic acid. Released ^3H-acetic acid was extracted with ethyl acetate and quantified by scintillation counting. For inhibition studies, the immunoprecipitated complexes were preincubated with the different HDAC inhibitors for 30 minutes at 4° C.

HDAC9a-FLAG [2] = target: T1, HDAC9a-FLAG; settings: FLUOR DE LYS substrate; TSA 1 μM (FIG. 7), preincubated 15 minutes at room temperature; SAHA concentration not given
HDAC9-FLAG = HDAC9-FLAG (Homo sapiens, UniProt Q9UKV0); settings: FLUOR DE LYS substrate; TSA 1 μM (FIG. 7), preincubated 15 minutes at room temperature; SAHA concentration not given
[3] = HDAC enzymatic activity of immunoprecipitated HDAC9/HDAC9a compared with HDAC4; assay type: biochemical; settings: comparable amount of protein; immunoprecipitated from 293T cells
[4] = tested on: MEF2C mediated transcriptional activation; assay: p3XMEF2-luciferase reporter assay in 293T cells; assay type: cell-based, human; settings: p3XMEF2-Luc; for repression of MEF2C mediated transcriptional activation: 1 ng, 10 ng, or 100 ng of plasmid; for MEF2C mediated transcriptional activation at the 100 ng dose: 100 ng plasmid
Description: It was then determined whether HDAC9 and HDAC9a repress MEF2-mediated transcription. This determination was carried out as follows. The p3XMEF2-luciferase reporter gene (100 ng) and the vector pRL-TK (Promega) (5 ng) were co-transfected into 293T cells in the absence (pcDNA3 empty vector) or presence of MEF2C (100 ng of pCMV-MEF2C). HDAC9-F (1 ng, 10 ng, or 100 ng of pFLAG-HDAC9; pFLAG-HDAC9 and HDAC9-FLAG are different constructs, with the FLAG sequence located at opposite ends of the HDAC9 nucleotide, but are functionally equivalent) or HDAC9a-F (1 ng, 10 ng, or 100 ng of pFLAG-HDAC9a; pFLAG-HDAC9a and HDAC9a-FLAG are different constructs, with the FLAG sequence located at opposite ends of the HDAC9a nucleotide, but are functionally equivalent) was included in a subset of experimental groups with the MEF2C vector. pFLAG empty vector was used to adjust the DNA to an equal amount in each transfection. The cells were harvested 24 to 36 hours after transfection and the luciferase activities were measured using the Dual-Luciferase™ Reporter Assay System from Promega according to the manufacturer's instruction. The firefly luciferase activity was first normalized to the co-transfected Renilla luciferase activity (encoded by the pRL-TK vector), and the luciferase activity value for cells transfected with MEF2C alone was set at 1. MEF2C activated transcription over 30 times the basal level of transcription. […] The transcriptional repression effect of HDAC9 and HDAC9a on MEF2C mediated transcription was a specific effect since a co-transfected reporter gene for transfection efficiency containing a TK promoter was not repressed by HDAC9 or HDAC9a.

MEF2 = assay: Anti-FLAG immunoprecipitation and anti-MEF2 Western blot; assay type: binding, human; settings: 293T cells, anti-FLAG IP, anti-MEF2 Western
Description: The Xenopus homolog of HDRP, MITR, was identified as a MEF2 interacting transcriptional repressor (Sparrow et al., EMBO J. 18:5085-5098(1999)) and mouse HDRP also interacts with and represses MEF2 mediated transcription (Zhang et al., J. Biol. Chem. 276:35-39 (2001)). […] 293 cells were transfected with vector, HDAC9-FLAG, or HDAC9a-FLAG. […] Western blot analysis of the immunoprecipitated proteins was carried out, using anti-MEF-2 antibody to probe the blot.

| inhibition of histone deacetylase activity of HDAC9a-FLAG (HDAC9a-FLAG [1]) | inhibition of HDAC9a deacetylase activity (HDAC9a-FLAG [2]) | inhibition of HDAC9 deacetylase activity (HDAC9-FLAG) | Molecule | HDAC activity relative to the deacetylase activity of HDAC4 [3] | repression of MEF2C mediated transcriptional activation [4] | MEF2C mediated transcriptional activation at the 100 ng dose [4] | interaction with MEF2 (MEF2) |
| --- | --- | --- | --- | --- | --- | --- | --- |
| completely inhibited | completely inhibited | completely inhibited | O=C(CCCCCCC(=O)Nc1ccccc1)NO [SAHA, suberoylanilide hydroxamic acid] | – | – | – | – |
| – | – | – | HDAC9: novel class II histone deacetylase, 1011 amino acids (SEQ ID NO: 2); tested as FLAG-tagged protein (protein, listed as Homo sapiens, FLAG tag, tested as FLAG-tagged protein) MHSMISSVDVKSEVPVGLEPISPLDLRTDLRMMMPVVDPVVREKQLQQELLLIQQQQQIQKQLLIAEFQKQHENLTRQHQAQLQEHIKELLAIKQQQELLEKEQKLEQQRQEQEVERHRREQQLPPLRGKDRGRERAVASTEVKQKLQEFLLSKSATKDTPTNGKNHSVSRHPKLWYTAAHHTSLDQSSPPLSGTSPSYKYTLPGAQDAKDDFPLRKTASEPNLKVRSRLKQKVAERRSSPLLRRKDGNVVTSFKKRMFEVTESSVSSSSPGSGPSSPNNGPTGSVTENETSVLPPTPHAEQMVSQQRILIHEDSMNLLSLYTSPSLPNITLGLPAVPSQLNASNSLKEKQKCETQTLRQGVPLPGQYGGSIPASSSHPHVTLEGKPPNSSHQALLQHLLLKEQMRQQKLLVAGGVPLHPQSPLATKERISPGIRGTHKLPRHRPLNRTQSAPLPQSTLAQLVIQQQHQQFLEKQKQYQQQIHMNKLLSKSIEQLKQPGSHLEEAEEELQGDQAMQEDRAPSSGNSTRSDSSACVDDTLGQVGAVKVKEEPVDSDEDAQIQEMESGEQAAFMQQPFLEPTHTRALSVRQAPLAAVGMDGLEKHRLVSRTHSSPAASVLPHPAMDRPLQPGSATGIAYDPLMLKHQCVCGNSTTHPEHAGRIQSIWSRLQETGLLNKCERIQGRKASLEEIQLVHSEHHSLLYGTNPLDGQKLDPRILLGDDSQKFFSSLPCGGLGVDSDTIWNELHSSGAARMAVGCVIELASKVASGELKNGFAVVRPPGHHAEESTAMGFCFFNSVAITAKYLRDQLNISKILIVDLDVHHGNGTQQAFYADPSILYISLHRYDEGNFFPGSGAPNEVGTGLGEGYNINIAWTGGLDPPMGDVEYLEAFRTIVKPVAKEFDPDMVLVSAGFDALEGHTPPLGGYKVTAKCFGHLTKQLMTLADGRVVLALEGGHDLTAICDASEACVNALLGNELEPLAEDILHQSPNMNAVISLQKIIEIQSMSLKFS | about ten times lower | in a dose-dependent manner | completely abolished | interacted with MEF2 |
| – | – | – | HDAC9a: alternatively spliced isoform of HDAC9, 879 amino acids (SEQ ID NO: 4); tested as FLAG-tagged protein (protein, listed as Homo sapiens, FLAG tag, tested as FLAG-tagged protein) MHSMISSVDVKSEVPVGLEPISPLDLRTDLRMMMPVVDPVVREKQLQQELLLIQQQQQIQKQLLIAEFQKQHENLTRQHQAQLQEHIKELLAIKQQQELLEKEQKLEQQRQEQEVERHRREQQLPPLRGKDRGRERAVASTEVKQKLQEFLLSKSATKDTPTNGKNHSVSRHPKLWYTAAHHTSLDQSSPPLSGTSPSYKYTLPGAQDAKDDFPLRKTASEPNLKVRSRLKQKVAERRSSPLLRRKDGNVVTSFKKRMFEVTESSVSSSSPGSGPSSPNNGPTGSVTENETSVLPPTPHAEQMVSQQRILIHEDSMNLLSLYTSPSLPNITLGLPAVPSQLNASNSLKEKQKCETQTLRQGVPLPGQYGGSIPASSSHPHVTLEGKPPNSSHQALLQHLLLKEQMRQQKLLVAGGVPLHPQSPLATKERISPGIRGTHKLPRHRPLNRTQSAPLPQSTLAQLVIQQQHQQFLEKQKQYQQQIHMNKLLSKSIEQLKQPGSHLEEAEEELQGDQAMQEDRAPSSGNSTRSDSSACVDDTLGQVGAVKVKEEPVDSDEDAQIQEMESGEQAAFMQQPFLEPTHTRALSVRQAPLAAVGMDGLEKHRLVSRTHSSPAASVLPHPAMDRPLQPGSATGIAYDPLMLKHQCVCGNSTTHPEHAGRIQSIWSRLQETGLLNKCERIQGRKASLEEIQLVHSEHHSLLYGTNPLDGQKLDPRILLGDDSQKFFSSLPCGGLGVDSDTIWNELHSSGAARMAVGCVIELASKVASGELKNGFAVVRPPGHHAEESTAMGFCFFNSVAITAKYLRDQLNISKILIVDLDVHHGNGTQQAFYADPSILYISLHRYDEGNFFPGSGAPNEVRFISLEPHFYLYLSGNCIA | about ten times lower | in a dose-dependent manner | completely abolished | interacted with MEF2 |
